Experimental data as given in the nanobody polyreactivity screen of Harvey et al. (2022).

Assay: yeast display, Sf9 membrane polyspecificity reagent, FACS + sequencing; frameworks hold sequencing errors
Method in brief: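 Genes from sorted yeast were amplified by colony PCR, read by MiSeq 2 × 250 sequencing and filtered on CDR length. These cells carried a synthetic nanobody library in Saccharomyces cerevisiae BJ5465 and were sorted by FACS into low and high (top ~1%) gates on anti-HA and streptavidin fluorescence. Polyreactivity is labelled according to the gate of origin.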

Sequence	polyreactivity (PSR sort gate)
QVQLVESGGGLVQAGGSLRLSCAASGSIFGRYAMGWYRQAPGKERELVANITSGDSTNYADSVKGRFTISRDNAKNTVYLQMNSRKPEDTAVYYCAAYRIGQYDYWGQGTQVTVSS	high polyreactivity
QVQLVESGGGLVQAGGSLRLSCDASGFTFYRYAMGWYRQAPGKERELVAAISSSGSSTYYADSVKGRFTISRDNAKNTVYLQMNSLKPEDTAVYYCAKRLGGSRPYYYWGQGTQVTVSS	high polyreactivity
QVQLVESGGGLVQAGGSLRLSCAASGRIFIRNDMGWYRQAPGKERELVAVITRSGGRTYYADSVKGRFTISRDNAMNTVYLQMNSLKPEDTAVYYCAKRQAFKQAPYEYWGQGSQVTVSS	low polyreactivity
QVQLVESGGGLVQAGGSLRLSCAASGRTFYQNAMGWYRQAPGKERELVAAISYRGASTYYADSVKGRFTISRDNAKNTVYLQMHSLKPEDTAVYYCAVAARTRARVLYGYDYWGQGTQVTVSS	low polyreactivity
QVQLVESGAGLFQAGGSLRISCAASGLIFDGYAMGWYRQATGKERELVAAITRSGGSTSYADSVKARFTISRDNAKNTVYLHMNSLKPEDTAVYYCAAKVHTFYYHYYSWGQGTQVTVSS	high polyreactivity
QVQLVESGGGLVQAGGSLRLSCAASGFIFGGNAMGWYRPAPGKERELVAAISRRGGNTYYADSVKGRFTISRDNAKITVYLQMNSLKPEDTAVYYCATGTSYWYLWAYDYWGQGTQVTVSS	high polyreactivity
QVQLVESGGGLVQAGGSLRLSCAASGFIFFLNAMGWYRQAPGKERELVAAISSSGGRTYYADSVKGRFTISRDNAKNTVYLQMNSLKPEDTAVYYCNAVTLYRSRTDGYWGQGTQVTVSS	high polyreactivity
QVQLVESGGGLVQAGGSLRLSCDASGSIFDYNTMGWYRQAPGKERELIAVISGTGGSTYYGDSVKGRFTISRDNAKNTVYLEMNSLKPEDTAVYYCAAAWYYSSRAFHATWGHDYWGQGTQVTVSS	low polyreactivity
QVQLVESGGGLVQAGGSLRLSCAASGRTFAYNTMGWYRQAPGKERELVAAITSGGSTYYADSVKGRFTISRDNAKNTVYLQINSLKPEDTAVYYCSAVDYWDYFYWRDDYWGQGTQVTVSS	low polyreactivity
QVQLVESGGGLVQAGGSLRLSCAASGSTFYNYAMGWYRQAPGKERELVASISSSGGSTYADSVKGRFTISRDNAKNTVYLQMNSLKPEDTAVYYCARVRWIVPWYGPTDDYWGQGTQVTVSS	low polyreactivity
QVQLVESGGGLVQAGGSLRLSCAASGRIFSGYVMGWYRQAPGKERELVAAISRSGGSTYYADSVKGRFTISRDNAKNTVYLQMNSLKPEDTAVYYCNAYYRYFRSIYDSWGQGTQVTVSS	high polyreactivity
QVQLVESGGGLVQAGGSLRLSCAASGLIFLYYAMGSYRQAPGKERELVAAIRTNYADSVKGRFTISRDNAKNTVSLQMNSLKPEDTAVYYCIAVSGDSGDYWGQGTQVTVSS	low polyreactivity
QVQLVESGGGLVQAGGSLRLSCAASGRISGWNAMGWYRQAPGKERELVAASTWSDGSTYYADSVKGRFTISRDNAKNTVYLQMNSLKPEDTAVYYCAAEYGWYAGDPYYGYDYYWGQGTQVTVSS	high polyreactivity
QVQLVESGGGLVQAGGSLRLSCAASGFTFFVYAMGWYRQAPGKERELVAVITSGGTTNYADSVKGRFTISRDNAKNTVYLQMNSLKPEDTAVYYCNARGEKRGYYYWGQGTQVTVSS	high polyreactivity
QVQLVESGGGLVQAGGRLRLSCAASGNTLRYYAMGWYRQAPGKERELVAAISESGGRTYYADSVKGRFTISRDNAKNTVYLQMNSLKPEDTAVYYCAASRWGGTWWYGYNYWGQGTQVTVSS	high polyreactivity
QVQLVESAGGLVQAGGSLRLSFAASGRISGRYAMRWYRQAPGKEREVVAAITSRGGRTYYADSVKGRFTISRDNAKNTVYLQMNSLKPEDTAVYYCAKDAGSRTVREFGYWGQGTHVTVSS	high polyreactivity
QEQLVESGGGLVQAGGSLRLSGAASGGIFGRYAMGGYRQAPGKEMELVAAISKRGGSTYYADSVKGRFTISRDNAKNTVYLQMNSLKPEETAFYYCNAAQSVELGYDYWGQGTQVTVSS	high polyreactivity
